Broadly, the Km is the concentration of substrate that gives half-maximal velocity.

The test system of data set [1] is CC[n+]1c(-c2ccccc2)c2cc(N)ccc2c2ccc(N)cc21. The data set can be described thus: cells, lysate or membranes. As to conditions: 50 mM KPi pH 7.0, 5 mM MgSO4, no proton-motive force, 0.25-10 µM ethidium bromide, non-expressing control subtracted.
Data set [2] has the same test system. The data set can be described thus: facilitated ethidium influx in ATP-depleted cells, fluorimetry, hyperbolic fit. The class given is cell-based, Lactococcus lactis. As to conditions: 50 mM KPi pH 7.0, 5 mM MgSO4, no proton-motive force, 0.25-10 µM ethidium bromide, non-expressing control subtracted.

Turning to LmrP (Lactococcus lactis), in data set [1], the Km worked out at 0.92 ± 0.30 µM.

Take LmrP (Lactococcus lactis; K357A): the Michaelis-Menten constant (Km) in data set [2] stood at 1.42 ± 0.29 µM.

For LmrP (Lactococcus lactis; R260A), the Km in data set [2] was found to be 1.49 ± 0.68 µM.

(Values after article PMC3380022, “Basic Residues R260 and K357 Affect the Conformational Dynamics of the Major Facilitator Superfamily Multidrug Transporter LmrP” (PLoS ONE, 2012).)
